Source: publication PMC8908544 (Structure (London, England : 1993), 2022)

How the values were obtained:
SARS-CoV RBD (306-527) = SARS-CoV RBD (306-527) (SARS-CoV, UniProt P59594 306-527); experiment: BLI
[1] = target: T1, receptor binding domain (RBD) of SARS-CoV-2 spike protein (SARS-CoV-2, UniProt P0DTC2 333-523); experiment: BLI
[2] = target: T1, receptor binding domain (RBD) of …; experiment: ELISA

B1: NB1A7 (VHH)
VHH: QVQLQESGGGSVQAGGSLRLSCAASGYTFSSYCLGWFRQAPGKEREGVAAIDSDGSTSYADSVKGRFTISRDNAKNTLYLQMNSLKPEDTAMYYCAAEGGPSLSYCTGGYGFLLSGLMYNSWGQGTQVTVSS
Kd (SARS-CoV RBD (306-527)): 471 nM

B2: NB1C6 (VHH)
VHH: QVQLQESGGGSVQAGGRLRLSCAASGDTYSSYCMGWFRQAPGKEREGVAAIYIGGDNTYYADSAKGRFTISQDYDKNTAYLQMNSLKSEDTAMYYCAAELFCPWPDIGTMSPAEYKYWGQGTQVTVSS
Kd [1]: 5.07 ± 0.05 nM

B3: format II: bi-paratopic and multivalent nanobody NB1A7-(GGGGS)4-NB1B11-Fc (bispecific antibody)
chain: QVQLQESGGGSVQAGGSLRLSCAASGYTFSSYCLGWFRQAPGKEREGVAAIDSDGSTSYADSVKGRFTISRDNAKNTLYLQMNSLKPEDTAMYYCAAEGGPSLSYCTGGYGFLLSGLMYNSWGQGTQVTVSSGGGGSGGGGSGGGGSGGGGSQVQLQESGGGSVQAGGSLRLSCAASGYTVSVGCMAWFRQAPGKEREGVAGIDASGITKYSDSVKGRFTISKDNAKNALDLQMNGLKPEDTAMYHCAAGLVRGSCTDVLDHPSYLGVWGQGTQVTVSSGGGGS
Kd [1]: < 0.001 nM | IC50 [2]: 37.5 nM

B4: NB1B11 (VHH)
VHH: QVQLQESGGGSVQAGGSLRLSCAASGYTVSVGCMAWFRQAPGKEREGVAGIDASGITKYSDSVKGRFTISKDNAKNALDLQMNGLKPEDTAMYHCAAGLVRGSCTDVLDHPSYLGVWGQGTQVTVSS
Kd [1]: 6.76 ± 0.027 nM | IC50 [2]: 709 nM
